± gives the standard deviation of the averaged measurements.
B1: library; a variant is named by its letters at N, in order (parent)
chain: GCUGUCACCGGUGCUUGGUACGUUAUAUUCAGCCGGUCUGAUGAGUCUNNNNNNAGACGAAACAGC

Assays:
[1] = variants of: B1; test: normalized RNA/DNA level without ligand (relative to sTRSVctl = 100) (log10 (% of sTRSVctl)); HEK293T overexpressing SLC46A1; higher = less ribozyme self-cleavage, higher mRNA level; conditions: without (6R,S)-folinic acid; ligand present: no
Summary of the method: (§1)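 For each 6-well well, 4 µg of library plasmid encoding mCherry-linked ribozyme switches, or eGFP-linked ones in some ligand experiments, was transfected into HEK293T. Any ligand was added 1 h before transfection, and RNA was extracted with EDTA 72 h after it, then reverse-transcribed, amplified, barcoded and sequenced. RNA level was obtained by dividing RNA reads by DNA reads, normalizing to a spiked-in non-cleaving sequence or to the top sequences, then scaling and log-transforming. The top set was 25 sequences, scaling was ×100 with log10, and ≥100 DNA reads were required.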

[2] = variants of: B1; test: normalized RNA/DNA level with ligand (relative to sTRSVctl = 100) (log10 (% of sTRSVctl)); HEK293T overexpressing SLC46A1; ligand concentration (+) RNA-Seq: 6 mM; higher = less ribozyme self-cleavage, higher mRNA level; conditions: with (6R,S)-folinic acid; ligand present: yes
Summary of the method: as §1

Variant	normalized RNA/DNA level without ligand (log10) [1]	normalized RNA/DNA level with ligand (log10) [2]
UUUCAU	1.993 ± 0.0093	2.02 ± 0.022
UUUCAA	1.997 ± 0.0084	2.01 ± 0.029
UUUCAC	2.0237 ± 0.0014	2.0028 ± 0.00095
UUUCUC	2.118 ± 0.0058	2.062 ± 0.014
UUUCUU	2.043 ± 0.0064	2.02 ± 0.021
UUUCUA	2.019 ± 0.011	2.042 ± 0.0037
GUUAUC	2.027 ± 0.012	2.044 ± 0.0079
GUUAUU	2.016 ± 0.0067	2.007 ± 0.02
AUUGGU	1.884 ± 0.011	1.99 ± 0.056
AUUGGG	1.7701 ± 0.00019	1.99 ± 0.033
AUUGGC	2.011 ± 0.012	2.05 ± 0.012
UUUAUU	1.988 ± 0.0096	2.03 ± 0.033
UUUAUC	2.103 ± 0.0028	2.065 ± 0.016
UUUAUA	1.993 ± 0.015	2 ± 0.03
GUUGAU	1.97 ± 0.021	2.003 ± 0.019
AUUGAC	1.99 ± 0.016	1.97 ± 0.046
AUUGAU	1.93 ± 0.0058	2.01 ± 0.036
AUUGCC	2.02 ± 0.029	2.02 ± 0.055
AUUGCA	1.976 ± 0.0096	1.98 ± 0.05
AUUGCU	2.015 ± 0.0026	1.979 ± 0.012
GUUUGA	2.013 ± 0.0046	2.05 ± 0.034

Variant	normalized RNA/DNA level without ligand (log10) [1]	normalized RNA/DNA level with ligand (log10) [2]
GUUUGC	1.951 ± 0.018	2.02 ± 0.067
GUUUGG	1.985 ± 0.015	2.03 ± 0.044
UUUGCC	2.001 ± 0.004	2.04 ± 0.037
AUUCAU	2 ± 0.026	2.0232 ± 0.0017
AUUCAC	2.04 ± 0.0098	1.994 ± 0.019
AUUCAA	1.9988 ± 0.0016	2.01 ± 0.029
GUUUUG	2.007 ± 0.0091	2.02 ± 0.049
GUUUUU	2.015 ± 0.0093	2 ± 0.02
GUUGCC	2.0274 ± 0.0015	1.998 ± 0.018
GUUGCA	2 ± 0.011	2.01 ± 0.038
AUUUCG	1.961 ± 0.016	2 ± 0.026
AUUUCC	2.048 ± 0.0099	2.037 ± 0.01
AUUUCA	2.036 ± 0.012	2.01 ± 0.026
AUUUCU	2.03 ± 0.025	2.034 ± 0.019
CUUUAC	2.019 ± 0.0086	2.01 ± 0.062
CUUUAA	1.978 ± 0.0046	2 ± 0.026
CUUUAU	1.9766 ± 0.0013	2 ± 0.048
CUUUAG	1.97 ± 0.024	1.9987 ± 0.00067
GUUGUU	2.03 ± 0.021	2.035 ± 0.018
GUUGUC	2.02 ± 0.025	2.021 ± 0.019
CUUUUA	1.988 ± 0.012	2 ± 0.052

Variant	normalized RNA/DNA level without ligand (log10) [1]	normalized RNA/DNA level with ligand (log10) [2]
CUUUUG	2.0401 ± 0.001	2.04 ± 0.029
CUUCCC	2.01 ± 0.03	2.002 ± 0.007
CUUCCU	1.996 ± 0.0085	2.02 ± 0.059
CUUCCA	2.023 ± 0.014	2.02 ± 0.037
CUUCCG	2.05 ± 0.029	2.06 ± 0.046
CUUCGU	2.053 ± 0.0097	2.04 ± 0.048
CUUCGG	2.063 ± 0.0068	2.036 ± 0.0089
CUUCGA	2.053 ± 0.0024	2.06 ± 0.038
CUUCGC	2.067 ± 0.018	2.072 ± 0.018
UUUCCC	2.043 ± 0.0052	2.02 ± 0.075
UUUCCU	2.0566 ± 0.0006	2.058 ± 0.018
UUUCCA	2.009 ± 0.0042	2.01 ± 0.027
UUUUUU	2.017 ± 0.014	2.03 ± 0.032
UUUUUC	2.05 ± 0.026	2.01 ± 0.026
UUUUUA	2.002 ± 0.0053	2.007 ± 0.014
UUUGUG	1.73 ± 0.051	1.95 ± 0.046
UUUGUU	1.944 ± 0.0033	1.99 ± 0.032
UUUGUC	2.069 ± 0.018	2.034 ± 0.02
UUUGUA	1.959 ± 0.0085	2.007 ± 0.014
AUUUAG	1.949 ± 0.013	2.01 ± 0.026
AUUUAA	1.953 ± 0.013	1.99 ± 0.059

Reference: the supplement of paper PMC6757056
